Read-outs that look alike come from different tables or passages of the source. Numbered stars: 1 amine (or outer) side, 2 acyl side, 3 side chain; on linkers, the order of the positions; unused ones are H or OH. Bridge positions count the residues as written; N and C are the ends. Square brackets hold non-standard residues; d marks the D form. Ends that are not written are not given here. dTiq = D-1,2,3,4-tetrahydroisoquinoline-1-carboxylic acid, O=C([C@H]1c2ccccc2CCN1[*:1])[*:2]; Bip = N[C@@H](Cc1ccc(-c2ccccc2)cc1)C(=O)O; Dip = N[C@H](C(=O)O)C(c1ccccc1)c1ccccc1; Phe(4-I) = N[C@@H](Cc1ccc(I)cc1)C(=O)O; 1Nal = N[C@@H](Cc1cccc2ccccc12)C(=O)O; d1Nal = N[C@H](Cc1cccc2ccccc12)C(=O)O; Tiq1c(1S) = O=C(O)[C@H]1NCCc2ccccc21; Tic = O=C(O)[C@@H]1Cc2ccccc2CN1; dTic = O=C(O)[C@H]1Cc2ccccc2CN1; Cha = N[C@@H](CC1CCCCC1)C(=O)O; dPhg = N[C@@H](C(=O)O)c1ccccc1; dTle = CC(C)(C)[C@@H](N)C(=O)O; Phg = N[C@H](C(=O)O)c1ccccc1; dAia = not defined here
T1: human urotensin II receptor (UT) (human, UniProt Q9UKP6 1-389)
T1 construct: whole, on cells; also called hUT; hGPR14
T1 sequence (looked up): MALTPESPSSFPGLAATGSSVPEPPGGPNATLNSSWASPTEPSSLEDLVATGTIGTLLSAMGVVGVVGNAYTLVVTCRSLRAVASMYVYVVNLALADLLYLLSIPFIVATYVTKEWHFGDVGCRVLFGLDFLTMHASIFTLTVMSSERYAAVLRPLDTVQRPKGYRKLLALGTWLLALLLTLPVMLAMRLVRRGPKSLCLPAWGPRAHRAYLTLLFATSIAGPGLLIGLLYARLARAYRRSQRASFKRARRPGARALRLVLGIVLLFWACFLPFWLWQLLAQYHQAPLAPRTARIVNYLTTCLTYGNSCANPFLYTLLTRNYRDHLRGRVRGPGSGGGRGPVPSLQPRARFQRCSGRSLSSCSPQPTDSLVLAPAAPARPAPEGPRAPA

T2: UT receptor present in rat aortic ring (rat, UniProt P49684 1-386)
T2 sequence (looked up): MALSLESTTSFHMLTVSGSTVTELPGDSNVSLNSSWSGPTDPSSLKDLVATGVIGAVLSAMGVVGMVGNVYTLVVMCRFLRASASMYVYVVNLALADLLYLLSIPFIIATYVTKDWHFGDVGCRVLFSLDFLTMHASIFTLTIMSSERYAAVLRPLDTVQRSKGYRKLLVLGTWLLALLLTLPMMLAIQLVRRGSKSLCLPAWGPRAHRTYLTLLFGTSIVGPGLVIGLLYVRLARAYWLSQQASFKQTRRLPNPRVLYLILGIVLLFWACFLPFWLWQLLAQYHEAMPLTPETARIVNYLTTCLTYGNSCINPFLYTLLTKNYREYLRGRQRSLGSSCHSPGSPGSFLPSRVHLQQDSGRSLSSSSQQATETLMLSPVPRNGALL


Legend:
[1] = target: T1, human urotensin II receptor (UT); assay: displacement of 0.2 nM 125I-hUII from CHO cells expressing human UT
[2] = target: T2, UT receptor present in rat aortic ring; assay: cell-based or functional assay
[3] = target: T1, human urotensin II receptor (UT); assay: displacement of 0.2 nM 125I-hUII from CHO cells expressing human UT; remark: listed apart in the source
Protocol: Cell Culture and Binding Experiments: Transfected CHO cells expressing the human urotensin receptor (CHO-UT) were maintained in Ham-F12 medium with 10% fetal bovine serum (FBS), 2 mM L-glutamine, 100 Ul/mL each of penicillin and streptomycin, and 400 μg/mL G418. […] Binding assays were following known literature procedures using CHO cells stably transfected with hGPR14. […] After 90 min of incubation at room temperature, cells were washed, lysed, and the cell-bound radioactivity was quantified using a γ-counter. […] The cells were then washed, lysed, and the radioactivity counted on a γ-counter (1470 Automatic Gamma Counter, Perkin Elmer).

[4] = target: T1, human urotensin II receptor (UT); assay: as above; remark: listed apart in the source
[5] = target: T2, UT receptor present in rat aortic ring; assay: cell-based or functional assay; remark: listed apart in the source
[6] = target: T2, UT receptor present in rat aortic ring; assay: cell-based or functional assay; remark: listed apart in the source
[7] = target: T1, human urotensin II receptor (UT); assay: dissociation from living CHO-UT cells started with 10^-6 M URP alone
Protocol: (§1) Binding assays were following known literature procedures using CHO cells stably transfected with hGPR14. […] After 90 min of incubation at room temperature, cells were washed, lysed, and the cell-bound radioactivity was quantified using a γ-counter. […] The cells were then washed, lysed, and the radioactivity counted on a γ-counter (1470 Automatic Gamma Counter, Perkin Elmer).

[8] = target: T1, human urotensin II receptor (UT); assay: dissociation from living CHO-UT cells started with 10^-6 M URP + 10^-6 M urocontrin ([Bip^4]URP)
Protocol: as §1

Molecule | Aortic Ring contraction Emax (%) [2] | IC50 [3] | pEC50 [4] | also measured
[Tbg^4]URP (peptide) |  |  |  | pEC50 [1]: < 5
ACF[Tic]KYCV-OH (disulfide 2-7) [[Tic^4]URP] |  |  |  | Aortic Ring contraction Emax (%), maximum efficacy at 10^-5.5 M [2]: 43 % of KCl (40 mM) contraction; pEC50 [1]: < 5
ACF[dTiq]KYCV (disulfide 2-7, also called compound 17) [[D-Tiq^4]URP] | 113 % of KCl (40 mM) contraction | 21 nM | 7.68 | 
H-ACF[1Nal]KYCV-OH (disulfide 2-7, H-Ala-Cys-Phe-Nal-Lys-Tyr-Cys-Val-OH; also called compound 3) [[1-Nal^4]URP] | 86 % of KCl (40 mM) contraction | 17 nM | 7.77 | 
H-ACFWKYCV-OH (disulfide 2-7; SMILES CC(C)[C@H](NC(=O)[C@@H]1CSSC[C@H](NC(=O)[C@H](C)N)C(=O)N[C@@H](Cc2ccccc2)C(=O)N[C@@H](Cc2c[nH]c3ccccc23)C(=O)N[C@@H](CCCCN)C(=O)N[C@@H](Cc2ccc(O)cc2)C(=O)N1)C(=O)O) [urotensin II-related peptide (URP)] | 100 % of KCl (40 mM) contraction |  |  | URP pEC50, rat aortic ring pre-treated with 10^-6 M [Bip^4]URP [5]: 7.74; Aortic Ring contraction EC50 [2]: 7 nM; Aortic Ring contraction pEC50 [2]: 8.09
H-ACF[dPhg]KYCV-OH (disulfide 2-7, also called compound 15) [[D-Phg^4]URP] | 116 % of KCl (40 mM) contraction | 29 nM | 7.56 | 
H-ETPDCFWKYCV-OH (disulfide 5-10) [human urotensin II (hUII)] | 117 % of KCl (40 mM) contraction |  |  | Aortic Ring contraction EC50 [2]: 1 nM; Aortic Ring contraction pEC50 [2]: 9.08; hUII pEC50, rat isolated aorta pre-treated with 0.3 µM [Bip^4]URP [6]: 8.31; hUII pEC50, rat isolated aorta pre-treated with 1 µM [Bip^4]URP [6]: 7.6; hUII pEC50, rat isolated aorta pre-treated with 3 µM [Bip^4]URP [6]: 7.55; hUII pEC50, rat isolated aorta, vehicle [6]: 8.98
H-ACF[Phg]KYCV-OH (disulfide 2-7, H-Ala-Cys-Phe-Phg-Lys-Tyr-Cys-Val-OH; also called compound 14) [[Phg^4]URP] | 102 % of KCl (40 mM) contraction | 29 nM | 7.53 | 
H-ACF[Bip]KYCV-OH (disulfide 2-7) [[Bip^4]URP] |  |  |  | pIC50, reversal of contractile tone established in rat isolated aorta with 4 nM hUII [5]: 7.72
ACF[dTle]KYCV-OH (disulfide 2-7, also called compound 8) [[D-Tbg^4]URP] | 99 % of KCl (40 mM) contraction | > 1000 nM |  | 
ACF[dTic]KYCV (disulfide 2-7) [[D-Tic^4]URP] | 128 % of KCl (40 mM) contraction |  |  | 
H-ACF[Cha]KYCV-OH (disulfide 2-7) [[Cha^4]URP] |  |  |  | Aortic Ring contraction Emax (%), maximum efficacy at 10^-5.5 M [2]: 77 % of KCl (40 mM) contraction
H-ACF[Phe(4-I)]KYCV-OH (disulfide 2-7, H-Ala-Cys-Phe-Phe(I)-Lys-Tyr-Cys-Val-OH; also called compound 5; [para-iodo-Phe^4]URP) [[Phe(I)^4]URP] |  | 58 nM | 7.24 | Aortic Ring contraction Emax (%), maximum efficacy at 10^-5.5 M [2]: 92 % of KCl (40 mM) contraction
H-ACF[Tiq1c(1S)]KYCV-OH (disulfide 2-7, H-Ala-Cys-Phe-Tiq-Lys-Tyr-Cys-Val-OH; also called compound 16) [[Tiq^4]URP] | 126 % of KCl (40 mM) contraction | 10 nM |  | 
ACF[dAia]KYCV (disulfide 2-7; not fully specified (bridges); reading uncertain; also: D-Aia indole ring bonded to Lys5 backbone N, also called compound 13) [[D-Aia^4]URP] | 148 % of KCl (40 mM) contraction | 60 nM | 7.22 | 
H-ACFWKYCV-OH (disulfide 2-7; also: 125I-labelled, site not given here, used at 0.2 nM; also called radiolabeled URP) [^125I-URP] |  |  |  | half-life (t1/2) [7]: 13.1 min; half-life (t1/2) [8]: 12.1 min
AXFXKYCV (position 2 is beta,beta-dimethyl-cysteine (Pen); position 4 is Tiq; cyclic (Pen2-Cys7 disulfide), H-Ala-Pen-Phe-Tiq-Lys-Tyr-Cys-Val-OH; also called compound 20) [[Pen^2, Tiq^4]URP] |  |  | < 5 | 
ACF[d1Nal]KYCV (disulfide 2-7, also called compound 4; [D-Nal^4]URP) [[D-1-Nal^4]URP] |  | 46 nM | 7.33 | Aortic Ring contraction Emax (%), maximum efficacy at 10^-5.5 M [2]: 34 % of KCl (40 mM) contraction
H-ACF[Dip]KYCV-OH (disulfide 2-7) [[Dip^4]URP] |  |  |  | Aortic Ring contraction Emax (%), maximum efficacy at 10^-5.5 M [2]: 23 % of KCl (40 mM) contraction
